The target of this assay is Rabbit skeletal muscle actin (actin filaments, F-actin) (rabbit, UniProt P68135 1-377). Nature of the assay: co-sedimentation.

Where only a bound is given, the exact number is not on record here.

B1: Mouse metallothionein-3 (MT-3), recombinant, cleaved WT MT-3 (natural protein)
chain: not shown
As usually defined, the Kd is a measure of binding affinity in units of concentration. B1: the Kd is > 20 µM.

These data come from publication doi:10.1101/2022.09.23.509211 (bioRxiv, 2022).
